Experimental data: patent US20240247080A1, “GLP1/GIP/NPY2 RECEPTOR TRIPLE AGONISTS” (Boehringer Ingelheim International GmbH, priority 2022, published 2024)
Positions count from the first letter of the chain named. Starred links: 1 amine or outer side, 2 acyl side, 3 side chain; linkers in the order of their positions; H or OH if unused. Non-standard residues stand in square brackets, D forms with d. Groups on a side chain read outwards from the residue. No end group written: not given here. *: point of attachment. C20 diacid = O=C(O)CCCCCCCCCCCCCCCCCCC(=O)*; γGlu = O=C(O)[C@H](CCC(=O)[*:2])N[*:1]; εLys = N[C@@H](CCCCN[*:1])C(=O)[*:2]; Aib = CC(C)(N)C(=O)O

T1: human GIP receptor (human, UniProt P48546 22-466)
T1 sequence (looked up): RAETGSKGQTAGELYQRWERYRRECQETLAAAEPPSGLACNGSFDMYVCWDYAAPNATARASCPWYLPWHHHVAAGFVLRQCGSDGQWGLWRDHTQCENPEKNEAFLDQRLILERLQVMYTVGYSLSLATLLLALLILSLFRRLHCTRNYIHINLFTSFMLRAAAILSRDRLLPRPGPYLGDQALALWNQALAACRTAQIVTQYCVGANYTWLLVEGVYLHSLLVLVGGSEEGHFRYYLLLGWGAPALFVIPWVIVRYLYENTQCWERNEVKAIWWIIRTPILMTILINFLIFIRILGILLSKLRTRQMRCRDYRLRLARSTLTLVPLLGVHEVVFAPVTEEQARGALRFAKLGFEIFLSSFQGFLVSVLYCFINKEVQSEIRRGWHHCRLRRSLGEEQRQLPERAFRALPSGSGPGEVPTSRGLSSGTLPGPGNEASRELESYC

T2: human neuropeptide Y2 (NPY2) receptor (human, UniProt P49146 1-381)
T2 sequence (looked up): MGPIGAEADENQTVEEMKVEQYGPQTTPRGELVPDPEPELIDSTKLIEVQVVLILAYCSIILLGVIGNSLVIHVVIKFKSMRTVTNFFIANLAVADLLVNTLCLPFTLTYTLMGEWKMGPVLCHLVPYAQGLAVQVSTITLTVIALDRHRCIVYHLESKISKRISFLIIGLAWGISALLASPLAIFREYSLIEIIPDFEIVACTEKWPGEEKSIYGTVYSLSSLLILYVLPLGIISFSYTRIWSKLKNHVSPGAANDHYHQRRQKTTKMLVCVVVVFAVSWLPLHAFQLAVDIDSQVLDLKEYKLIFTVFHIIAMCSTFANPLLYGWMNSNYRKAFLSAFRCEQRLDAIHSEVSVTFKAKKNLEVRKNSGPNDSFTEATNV

B1: Compound 19 (peptide)
peptide: YXEGTFTSDYSIXLEKQAQXAFVQWLIKGGPSYYVSLRHYYNWLTRQRY
modifications: Aib at 2, 13, 20; K28 side chain: C20DA-gGlu-gGlu-gGlu-gGlu-gGlu-gGlu-eLys; C-terminal NH2
B2: Compound 32 (peptide)
peptide: B1 peptide with S32E, Y33S, Y34G, V35A
modifications: Aib at 2, 13, 20; K28 side chain: C20DA-gGlu-gGlu-gGlu-gGlu-gGlu-OEG-OEG; C-terminal NH2
B3: Compound 30 (peptide)
peptide: B1 peptide with K16E, Y33S, Y34G, V35A
modifications: Aib at 2, 13, 20; K28 side chain: C20DA-gGlu-gGlu-Glu-gGlu-gGlu-gGlu-eLys; C-terminal NH2
B4: Compound 22 (peptide)
peptide: B1 peptide with P31Q, Y33S, V35A
modifications: Aib at 2, 13, 20; K28 side chain: C20DA-gGlu-gGlu-gGlu-gGlu-gGlu-Glu-eLys; C-terminal NH2
B5: Compound 26 (peptide)
peptide: B1 peptide with Q24E, Y33S, Y34G, V35A, L37X, R46X
modifications: Aib at 2, 13, 20, 37; hArg 46; DTyr 49; K28 side chain: C20DA-gGlu-gGlu-gGlu-gGlu-gGlu-gGlu-eLys; C-terminal NH2
B6: Compound 35 (peptide)
peptide: B1 peptide with Y33S, Y34G, V35E
modifications: Aib at 2, 13, 20; K28 side chain: C20DA-gGlu-gGlu-gGlu-gGlu-gGlu-gGlu-eK; C-terminal NH2
B7: Compound 21 (peptide)
peptide: B1 peptide with Q24E, Y33S, Y34G, V35A
modifications: Aib at 2, 13, 20; DHis 39; DArg 46; DTyr 49; K28 side chain: C20DA-gGlu-gGlu-gGlu-gGlu-gGlu-gGlu-eLys; C-terminal NH2
B8: Compound 27 (peptide)
peptide: B1 peptide with Q24E, Y33S, Y34G, L37I
modifications: Aib at 2, 13, 20; K28 side chain: C20DA-gGlu-gGlu-gGlu-gGlu-gGlu-gGlu-eLys; C-terminal NH2
B9: Compound 33 (peptide)
peptide: B1 peptide with Q24E, Y33S, Y34A
modifications: Aib at 2, 13, 20; K28 side chain: C20DA-gGlu-gGlu-gGlu-gGlu-gGlu-gGlu-eLys; C-terminal NH2
B10: Compound 36 (peptide)
peptide: B1 peptide with A21E, Y33S, Y34G, V35A
modifications: Aib at 2, 13, 20; K28 side chain: C20DA-gGlu-gGlu-gGlu-gGlu-gGlu-OEG-OEG; C-terminal NH2
B11: Compound 29 (peptide)
peptide: B1 peptide with S32E, Y33S, Y34G, V35A
modifications: Aib at 2, 13, 20; K28 side chain: C20DA-gGlu-gGlu-gGlu-gGlu-gGlu; C-terminal NH2
B12: Compound 31 (peptide)
peptide: B1 peptide with K16E, Q24E, Y33S, Y34G, V35Q
modifications: Aib at 2, 13, 20; K28 side chain: C20DA-gGlu-gGlu-gGlu-gGlu-gGlu-gGlu-eLys; C-terminal NH2
B13: Compound 20 (peptide)
peptide: YXEGTFTSDYSIXLAAAAQXAFVEWLIKGGPSSGASLRHYYNWLTRQRY
modifications: Aib at 2, 13, 20; K28 side chain: C20DA-gGlu-gGlu-gGlu-gGlu-gGlu-gGlu-eLys; C-terminal NH2
B14: Compound 24 (peptide)
peptide: B13 peptide with A15E, A16X, A17K, A21E
modifications: Aib at 2, 13, 16, 20; K28 side chain: C20DA-gGlu-gGlu-gGlu-gGlu-gGlu-gGlu-eLys; C-terminal NH2
B15: Compound 25 (peptide)
peptide: B13 peptide with A15E, A18K
modifications: Aib at 2, 13, 20; K28 side chain: C20DA-gGlu-gGlu-gGlu-gGlu-gGlu-gGlu-eLys; C-terminal NH2
B16: Compound 4 (peptide)
peptide: YXEGTFTSDYSIXLEKQAQXAFVEWLIKGGPSSGASXRHYXNRXTRQRY
modifications: Aib at 2, 13, 20, 37, 41, 44; K28 side chain: C20DA-gGlu-gGlu-gGlu-gGlu-gGlu-gGlu-eLys; C-terminal NH2

Legend:
Test in all cases: cell-based or functional assay
[1] = target: human GLP-1 receptor (human, UniProt P43220 24-463)
[2] = target: T1, human GIP receptor
[3] = target: T2, human neuropeptide Y2 (NPY2) receptor

Binder	EC50, CreLuc assay, 0.5% hP [1] [nM]	EC50, CreLuc assay, 100% hP [1] [nM]	EC50, CreLuc assay, 0.5% hP [2] [nM]	EC50, CreLuc assay, 100% hP [2] [nM]	EC50, CreLuc assay, 0.5% hP [3] [nM]	EC50, CreLuc assay, 100% hP [3] [nM]
Y[Aib]EGTFTSDYSI[Aib]LEKQAQ[Aib]AFVQWLIK([εLys-Glu-γGlu-γGlu-γGlu-γGlu-C20 diacid])GGPEYYASLRHYYNWLTRQRY-NH2 (also: TFA salt) [Compound 23]	0.47	37.7	0.56	11.4	10.1	72.4
B1	0.5	10.2	0.61	6.5	9.41	19.3
B2	0.07	4.74	0.16	1.15	12.2	49.3
B3	0.08	1.08	0.13	1.06	13.3	56.2
B4	0.45	15.9	0.54	6.62	8.06	21.3
B5	0.07	1.18	0.09	0.7	> 100	670
B6	0.07	1.3	0.06	0.96	11.6	29.3
B7	0.11	1.66	0.14	0.87	> 99.9	> 999
B8	0.1	1.97	0.17	1.11	7.16	21
B9	0.14	3.17	0.25	1.51	9.93	26.7
B10	0.28	7.78	0.26	1.57	8.03	26.8
B11	0.13	6.74	0.23	4.08	8.79	74.5
B12	0.06	2.94	0.15	2.63	13.4	43.5
Y[Aib]EGTFTSDYSI[Aib]LEKQAQ[Aib]EFVQWLIKGGPSSGASLRHYYNWLTRQRY-NH2 (not fully specified (residue 28); also: TFA salt) [Compound 28]	0.22	6.51	0.38	3.08	10.3	46
B13	0.87	24.3	0.93	7.75	19.1	62
B14	1.77	15.3	4.1	17.7	26.8	94.5
B15	0.67	14.2	0.98	6.97	13	38.3
Y[Aib]EGTFTSDYSI[Aib]LEEQAQ[Aib]AFVQWLIK([εLys-γGlu-γGlu-γGlu-γGlu-γGlu-C20 diacid])GGPSSGASLRHYYNWLTRQRY-NH2 (also: TFA salt) [Compound 34]	0.09	1.39	0.13	1.61	14.6	66.7
B16	0.09	1.74	0.25	1.66	66.4	182
